The text below walks through data of PMC11044049 (The Journal of Biological Chemistry, 2024).

Positions count from the first letter of the chain named. Names and notes keep the numbering of the source.

Data set [1] concerns the molecule itself. The experiment in a line: cryo-EM structure; 2.5 μM clamp loader and 2.2 μM sliding clamp, 1 mM ADP·BeFx, cross-linked with 1 mM BS3; 25 mM HEPES-NaOH pH 8.0, 200 mM NaCl, 4 mM MgCl2, 1 mM TCEP; Semi-Open and Fully-Open states.
Data set [2] concerns the molecule itself. The experiment in a line: reconstitution and co-elution on anion exchange (HiTrap Q); purified γ (WT or K141A), δ and δ′ (WT or K130A) combined 2.5:1:1, dialysed into Buffer Q-A (50 mM Tris pH 7.5, 50 mM NaCl, 10% glycerol, 2 mM DTT) overnight at 4 °C, eluted from a HiTrap Q column with a NaCl gradient; fractions with the intact complex pooled.

B1: γ subunit of the E. coli clamp loader (residues 1-373) (domain or fragment, UniProt P06710 1-373, looked up)
chain: MSYQVLARKWRPQTFADVVGQEHVLTALANGLSLGRIHHAYLFSGTRGVGKTSIARLLAKGLNCETGITATPCGVCDNCREIEQGRFVDLIEIDAASRTKVEDTRDLLDNVQYAPARGRFKVYLIDEVHMLSRHSFNALLKTLEEPPEHVKFLLATTDPQKLPVTILSRCLQFHLKALDVEQIRHQLEHILNEEHIAHEPRALQLLARAAEGSLRDALSLTDQAIASGDGQVSTQAVSAMLGTLDDDQALSLVEAMVEANGERVMALINEAAARGIEWEALLVEMLGLLHRIAMVQLSPAALGNDMAAIELRMRELARTIPPTDIQLYYQTLLIGRKELPYAPDRRMGVEMTLLRALAFHPRMPLPEPEVPRQ
notes: γ subunit of the E. coli clamp loader, truncated form, residues 1-373; Stands for the single γ subunits within the γ-complex; also called γ protein; B, C and D subunits; source: E. coli BLR21(DE3), purified (HisTrap, Prescission Protease, HisTrap flowthrough); not shown: His6, N-terminal, cleaved
Regarding B1, in data set [1], the binding result is given as “binds”.

B2: γ-K141A (domain or fragment, E. coli, UniProt P06710 1-373, looked up)
chain: B1 chain with K141A
notes: γ subunit of the E. coli clamp loader with K141A; insert bought from Twist Bioscience; the range 1-373 is stated for the γ subunit in general; The limits 1-373 are not repeated for the mutant itself; source: E. coli BLR21(DE3), purified (Nickel NTA agarose, Prescission Protease, HisTrap); not shown: His6, N-terminal, cleaved
B2: in data set [2], the binding result was “binds”.
